Results as given in patent publication US20120322685A1, “DEVICE FOR COLLECTING AND ANALYZING MIGRATORY TUMOR CELLS” (priority 2010, published 2012).

Experiments:
[1] = system: tumor cells and macrophages of primary mammary tumors; test: in vivo invasion assay, needles with matrigel and growth factors in primary mammary tumor; parameters: species or system rats and mice; conditions: factor in matrigel-filled needle placed in primary tumor
Source text: (§1) Therefore, an in vivo invasion assay was created in which three needles (microneedles ˜100 um in diameter) containing matrigel and various growth factors are placed independently with microscopic precision, using a specially designed micromanipulator guided device, into the primary tumor for chemotaxis-based cell collection in vivo [3]. One needle contains control conditions (usually no ligand or an inhibitor), and the other two are identical. […] Fetal serum was also sufficient but this required signaling by the EGF receptor again implicating the EGF receptor. Furthermore, CSF-1 was also sufficient for cell collection. […] Migration and collection was directly correlated with macrophage density in the mammary gland, stage of progression to malignancy (only background levels of cells, <200 cells, were collected from normal mammary glands and adenoma stage tumors compared with carcinoma stage tumors, ˜1000 cells) and the presence of CSF1 in the tumor was required for cell collection as shown using mouse models with either decreased (op/op) or increased (tet on CSF-1) CSF-1 expression that regulates macrophage recruitment to the mammary gland and metastasis. […] Furthermore, the motility of tumor cells and intravasation occurs preferentially in association with macrophages. […]

[2] = system: Human lung tumors heterotransplanted into nude mice; test: in vivo invasion assay, chemotaxis-based cell collection into needles, human lung tumor heterotransplants; conditions: needles containing 25 nM EGF; first mouse to mouse transplant
Source text: as §1

[3] = system: MDA-MB-231 derived mammary tumors; test: in vivo invasion assay, MDA-MB-231 derived mammary tumors; parameters: species or system human tumor xenograft in SCID mice tumor xenograft in SCID mice; conditions: MDA-MB-231 injected into mammary fat pad of mice; FIG. 1C
Source text: Therefore, an in vivo invasion assay was created in which three needles (microneedles ˜100 um in diameter) containing matrigel and various growth factors are placed independently with microscopic precision, using a specially designed micromanipulator guided device, into the primary tumor for chemotaxis-based cell collection in vivo [3]. One needle contains control conditions (usually no ligand or an inhibitor), and the other two are identical. […] Fetal serum was also sufficient but this required signaling by the EGF receptor again implicating the EGF receptor. Furthermore, CSF-1 was also sufficient for cell collection. […]
Mammary tumors derived by injecting the human cell line MDA-MB-231 into a mammary fat pad of mice were used in the in vivo invasion assay. […] The involvement of EGF and CSF1 in carcinoma cell invasion has been analyzed from primary breast tumors derived from the injection of MDA-MB-231 cells into the mammary fat pads of SCID mice. […]

B1: EGF: epidermal growth factor, chemotactic factor used in collection needles (protein, UniProt P01133 23-1207, looked up)
Pro-epidermal growth factor: PQHWSCPEGTLAGNGNSTCVGPAPFLIFSHGNSIFRIDTEGTNYEQLVVDAGVSVIMDFHYNEKRIYWVDLERQLLQRVFLNGSRQERVCNIEKNVSGMAINWINEEVIWSNQQEGIITVTDMKGNNSHILLSALKYPANVAVDPVERFIFWSSEVAGSLYRADLDGVGVKALLETSEKITAVSLDVLDKRLFWIQYNREGSNSLICSCDYDGGSVHISKHPTQHNLFAMSLFGDRIFYSTWKMKTIWIANKHTGKDMVRINLHSSFVPLGELKVVHPLAQPKAEDDTWEPEQKLCKLRKGNCSSTVCGQDLQSHLCMCAEGYALSRDRKYCEDVNECAFWNHGCTLGCKNTPGSYYCTCPVGFVLLPDGKRCHQLVSCPRNVSECSHDCVLTSEGPLCFCPEGSVLERDGKTCSGCSSPDNGGCSQLCVPLSPVSWECDCFPGYDLQLDEKSCAASGPQPFLLFANSQDIRHMHFDGTDYGTLLSQQMGMVYALDHDPVENKIYFAHTALKWIERANMDGSQRERLIEEGVDVPEGLAVDWIGRRFYWTDRGKSLIGRSDLNGKRSKIITKENISQPRGIAVHPMAKRLFWTDTGINPRIESSSLQGLGRLVIASSDLIWPSGITIDFLTDKLYWCDAKQSVIEMANLDGSKRRRLTQNDVGHPFAVAVFEDYVWFSDWAMPSVMRVNKRTGKDRVRLQGSMLKPSSLVVVHPLAKPGADPCLYQNGGCEHICKKRLGTAWCSCREGFMKASDGKTCLALDGHQLLAGGEVDLKNQVTPLDILSKTRVSEDNITESQHMLVAEIMVSDQDDCAPVGCSMYARCISEGEDATCQCLKGFAGDGKLCSDIDECEMGVPVCPPASSKCINTEGGYVCRCSEGYQGDGIHCLDIDECQLGEHSCGENASCTNTEGGYTCMCAGRLSEPGLICPDSTPPPHLREDDHHYSVRNSDSECPLSHDGYCLHDGVCMYIEALDKYACNCVVGYIGERCQYRDLKWWELRHAGHGQQQKVIVVAVCVVVLVMLLLLSLWGAHYYRTQKLLSKNPKNPYEESSRDVRSRRPADTEDGMSSCPQPWFVVIKEHQDLKNGGQPVAGEDGQAADGSMQPTSWRQEPQLCGMGTEQGCWIPVSSDKGSCPQVMERSFHMPSYGTQTLEGGVEKPHSLLSANPLWQQRALDPPHQMELTQ
modifications: Pro-epidermal growth factor
notes: epidermal growth factor, chemotactic factor used in collection needles
chemotaxis to indwelling needles / cell collection [1]: stimulated collection
fold more cells collected in needles as compared to needles with buffer alone [2]: 2.5 fold
fold more cells collected in response to EGF [3]: 2.5 fold

B2: CSF-1: growth factor chemotactic for macrophages (protein, UniProt P09603 33-554, looked up)
Macrophage colony-stimulating …: EEVSEYCSHMIGSGHLQSLQRLIDSQMETSCQITFEFVDQEQLKDPVCYLKKAFLLVQDIMEDTMRFRDNTPNAIAIVQLQELSLRLKSCFTKDYEEHDKACVRTFYETPLQLLEKVKNVFNETKNLLDKDWNIFSKNCNNSFAECSSQDVVTKPDCNCLYPKAIPSSDPASVSPHQPLAPSMAPVAGLTWEDSEGTEGSSLLPGEQPLHTVDPGSAKQRPPRSTCQSFEPPETPVVKDSTIGGSPQPRPSVGAFNPGMEDILDSAMGTNWVPEEASGEASEIPVPQGTELSPSRPGGGSMQTEPARPSNFLSASSPLPASAKGQQPADVTGTALPRVGPVRPTGQDWNHTPQKTDHPSALLRDPPEPGSPRISSLRPQGLSNPSTLSAQPQLSRSHSSGSVLPLGELEGRRSTRDRRSPAEPEGGPASEGAARPLPRFNSVPLTDTGHERQSEGSFSPQLQESVFHLLVPSVILVLLAVGGLLFYRWRRRSHQEPQRADSPLEQPEGSPLTQDDRQVELPV
chemotaxis to indwelling needles / cell collection [1]: sufficient
